Here are results for one molecule from patent publication US20240360223A1 (DRAGONFLY THERAPEUTICS, published 2024).

The term Kd denotes the constant that tells how readily two partners part at equilibrium. The EC50 is the concentration giving half of the maximal effect. As a reminder, the koff is the first-order rate constant of dissociation. One may read the kon as a measure of how fast the partners come together. A word on the EC50 (read off the curve): it is the concentration giving half of the maximal effect.

In test [1] the target is T1, human BAFF-R expressed on cells (human, UniProt Q96RJ3 1-184). Nature of the test: cell-based or functional assay.
The target in test [2] is T2, human FcRn (human, UniProt P55899 24-297; P61769 21-119). Briefly: SPR, pH 6.0, steady state; pH 6.0; third replicate.
Test [3] deals with T1, human BAFF-R expressed on cells. Nature of the test: flow cytometry, Raji cells.
Test [4] concerns the target T3, cynomolgus NKG2D (recombinant mFc-tagged dimer) (cynomolgus, UniProt P61252 78-216).
T3 construct: also called cyno NKG2D
T3 sequence (looked up): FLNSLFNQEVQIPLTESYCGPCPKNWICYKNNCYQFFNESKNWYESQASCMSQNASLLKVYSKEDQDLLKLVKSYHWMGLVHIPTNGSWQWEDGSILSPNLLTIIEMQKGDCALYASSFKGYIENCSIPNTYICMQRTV
Nature of the test: SPR, 1:1 kinetic fit, average. The source says: NKG2D is a native dimer, therefore recombinant mFc-tagged NKG2D dimer was used for this experiment. Two different fits were utilized to obtain the equilibrium affinity data: steady state affinity fit and kinetic fit.
For orientation: In SPR one partner is held on a chip, and binding of the other changes the refractive index at the surface.

Test [5] concerns the target T4, human CD64 (human, UniProt P12314 16-288, limits assumed).
T4 construct: also called FcγRI
Nature of the test: SPR, average. On the procedure:
Binding analyses as described in this Example were performed using SPR, as described in Example 4.

The target of test [6] is T1, human BAFF-R expressed on cells. Briefly: flow cytometry on hBAFFR-CHO cells, anti-human Fc-g-PE, fold over background. Background: A flow cytometer gives signals particle by particle.
Test [7] has as its target T5, BCMA expressed on C6 cells (UniProt Q02223 1-184, limits assumed).
T5 construct: whole, on cells; also called BCMA-C6; isogenic BCMA+ cells
T5 sequence (looked up): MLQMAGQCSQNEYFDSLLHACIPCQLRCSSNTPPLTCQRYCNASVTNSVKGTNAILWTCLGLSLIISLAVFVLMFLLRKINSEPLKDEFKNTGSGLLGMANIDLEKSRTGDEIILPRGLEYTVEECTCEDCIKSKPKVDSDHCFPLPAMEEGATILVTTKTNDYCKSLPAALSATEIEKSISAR
Nature of the test: flow cytometry on BCMA-C6 cells, anti-human Fc-g-PE. The source says: A mAb with known BCMA specificity (EM901) was used as a positive control for BCMA detection.

The target in test [8] is T6, human NKG2D (recombinant mFc-tagged dimer) (human, UniProt P26718 78-216).
T6 construct: also called hNKG2D
T6 sequence (looked up): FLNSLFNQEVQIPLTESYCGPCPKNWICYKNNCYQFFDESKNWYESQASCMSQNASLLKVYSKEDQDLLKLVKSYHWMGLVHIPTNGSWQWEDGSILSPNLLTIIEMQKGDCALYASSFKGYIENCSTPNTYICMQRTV
Nature of the test: SPR, kinetic fit, control.

Test [9] addresses T7, human CD16a V158 (human, UniProt P08637 17-208).
T7 construct: also called hCD16aV; hCD16a V158
Briefly: SPR, average.

The target of test [10] is T8, human CD32a R131 (human, UniProt P12318 36-218, limits assumed).
T8 construct: also called FcγRIIa R131
T8 sequence (looked up): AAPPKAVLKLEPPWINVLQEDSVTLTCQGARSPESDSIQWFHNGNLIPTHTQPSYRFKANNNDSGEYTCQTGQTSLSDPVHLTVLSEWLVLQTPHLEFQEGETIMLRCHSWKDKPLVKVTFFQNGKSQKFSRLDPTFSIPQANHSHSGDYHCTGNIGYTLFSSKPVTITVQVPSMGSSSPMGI
Nature of the test: SPR, steady state, average.

The target in test [11] is T9, cynomolgus monkey BAFF-R expressed on cells (cynomolgus monkey).
T9 construct: whole, on cells; also called cBAFF-R; cynoBAFF-R
Briefly: flow cytometry, cyno BAFF-R CHO cells.

In test [12] the target is T10, human CD32a H131 (human, UniProt P12318 36-218, limits assumed).
T10 sequence (looked up): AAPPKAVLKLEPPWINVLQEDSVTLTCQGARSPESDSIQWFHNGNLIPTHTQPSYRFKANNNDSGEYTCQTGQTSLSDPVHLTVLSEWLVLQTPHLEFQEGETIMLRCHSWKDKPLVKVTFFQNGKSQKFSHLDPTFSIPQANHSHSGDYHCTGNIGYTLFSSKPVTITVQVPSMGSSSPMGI
Briefly: SPR, steady state.

Test [13] has as its target T11, cynomolgus FcRn (cynomolgus, UniProt Q8SPV9 24-297; Q8SPW0 21-119).
T11 construct: also called Cyno FcRn
Briefly: SPR, pH 6.0, summary table.

The target in test [14] is T2, human FcRn. Briefly: SPR, pH 6.0, steady state; pH 6.0; first replicate.
Test [15] concerns the target T1, human BAFF-R expressed on cells. Briefly: flow cytometry, BJAB cells, after 4 weeks at 40 °C.
Test [16] has as its target T2, human FcRn. Briefly: SPR, pH 6.0, steady state; pH 6.0; fourth replicate.
The target of test [17] is T12, human CD32b (human, UniProt P31994 46-217, limits assumed).
T12 construct: also called FcγRIIb
T12 sequence (looked up): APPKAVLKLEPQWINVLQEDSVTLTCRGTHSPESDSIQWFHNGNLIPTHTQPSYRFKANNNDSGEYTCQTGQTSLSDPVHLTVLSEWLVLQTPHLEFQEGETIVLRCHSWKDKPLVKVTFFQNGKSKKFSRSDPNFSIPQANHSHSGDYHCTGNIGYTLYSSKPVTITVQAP
Briefly: SPR, steady state, average.

Test [18] concerns the target T13, cynomolgus CD16 (cynomolgus, UniProt Q8SPW2 17-208, limits assumed).
T13 construct: also called Cyno CD16; cynomolgus FcγRIII
Nature of the test: SPR, kinetic fit; first replicate, kinetic fit.

Test [19] deals with T1, human BAFF-R expressed on cells. Briefly: flow cytometry, human BAFF-R CHO cells.

Where “and” joins values, the source holds several entries; their conditions need not be identical. Identical values can stand only once.

T2 sequence (P55899 24-297 limits assumed, chain 1 of 2): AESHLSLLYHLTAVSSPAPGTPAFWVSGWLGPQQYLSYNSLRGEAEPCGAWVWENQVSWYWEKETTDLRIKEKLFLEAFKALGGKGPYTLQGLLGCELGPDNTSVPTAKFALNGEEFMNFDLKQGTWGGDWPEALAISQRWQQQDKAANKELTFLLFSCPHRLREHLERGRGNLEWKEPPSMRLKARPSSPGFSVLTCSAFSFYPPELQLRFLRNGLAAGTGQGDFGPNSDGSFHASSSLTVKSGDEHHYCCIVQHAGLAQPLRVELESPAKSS
T2 sequence (P61769 21-119 limits assumed, chain 2 of 2): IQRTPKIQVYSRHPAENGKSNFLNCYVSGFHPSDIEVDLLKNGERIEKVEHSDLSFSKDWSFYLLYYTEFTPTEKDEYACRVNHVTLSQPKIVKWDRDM
T4 sequence (P12314 16-288 limits assumed): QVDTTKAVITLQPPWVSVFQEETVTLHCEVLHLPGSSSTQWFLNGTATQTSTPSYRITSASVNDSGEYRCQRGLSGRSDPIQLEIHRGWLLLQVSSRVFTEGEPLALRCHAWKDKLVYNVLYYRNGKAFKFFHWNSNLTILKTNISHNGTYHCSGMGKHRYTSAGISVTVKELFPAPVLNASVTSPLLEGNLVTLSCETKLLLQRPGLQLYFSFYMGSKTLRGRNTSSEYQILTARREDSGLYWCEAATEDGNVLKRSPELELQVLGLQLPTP
T7 sequence (P08637 17-208 F176V limits assumed): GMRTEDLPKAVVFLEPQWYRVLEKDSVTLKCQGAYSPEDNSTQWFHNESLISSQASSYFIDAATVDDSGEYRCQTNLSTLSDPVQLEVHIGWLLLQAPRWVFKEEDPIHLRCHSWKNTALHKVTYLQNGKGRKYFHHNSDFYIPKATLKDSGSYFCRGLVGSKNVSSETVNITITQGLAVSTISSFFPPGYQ
T11 sequence (Q8SPV9 24-297 limits assumed, chain 1 of 2): as the sequence (P55899 24-297 limits assumed, chain 1 of 2) above, with N39D, E44Q, G99S, S189G, S190N, L217M, S269T counted along it
T11 sequence (Q8SPW0 21-119 limits assumed, chain 2 of 2): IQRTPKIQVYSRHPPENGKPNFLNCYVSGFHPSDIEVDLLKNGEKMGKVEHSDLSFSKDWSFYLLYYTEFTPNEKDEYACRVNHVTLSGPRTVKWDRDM
T13 sequence (Q8SPW2 17-208 limits assumed): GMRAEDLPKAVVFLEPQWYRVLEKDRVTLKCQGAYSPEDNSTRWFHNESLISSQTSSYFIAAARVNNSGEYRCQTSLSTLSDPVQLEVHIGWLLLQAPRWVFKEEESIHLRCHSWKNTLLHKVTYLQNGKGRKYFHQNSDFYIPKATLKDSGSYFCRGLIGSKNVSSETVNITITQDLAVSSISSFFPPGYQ

B1: AB1424/AB1612 F3′ TriNKET (bispecific antibody, human IgG1, kappa)
chain: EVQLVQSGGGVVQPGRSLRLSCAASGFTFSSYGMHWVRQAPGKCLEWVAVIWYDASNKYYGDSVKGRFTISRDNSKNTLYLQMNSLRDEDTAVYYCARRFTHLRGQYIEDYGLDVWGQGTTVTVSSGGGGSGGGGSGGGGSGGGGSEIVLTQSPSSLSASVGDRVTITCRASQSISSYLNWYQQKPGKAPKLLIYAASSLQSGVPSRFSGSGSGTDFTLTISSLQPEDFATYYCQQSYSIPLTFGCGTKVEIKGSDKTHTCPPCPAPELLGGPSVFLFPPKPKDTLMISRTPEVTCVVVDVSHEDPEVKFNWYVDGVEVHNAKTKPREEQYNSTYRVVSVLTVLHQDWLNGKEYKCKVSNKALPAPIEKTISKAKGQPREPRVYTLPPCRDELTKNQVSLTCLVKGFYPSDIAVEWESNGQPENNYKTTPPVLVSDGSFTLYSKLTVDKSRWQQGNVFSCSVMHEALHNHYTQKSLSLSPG
heavy: EVQLVESGGGLVKPGGSLRLSCAASGFTFSSYSMNWVRQAPGKGLEWVSSISSSSSYIYYADSVKGRFTISRDNAKNSLYLQMNSLRAEDTAVYYCARGAPIGAAAGWFDPWGQGTLVTVSSASTKGPSVFPLAPSSKSTSGGTAALGCLVKDYFPEPVTVSWNSGALTSGVHTFPAVLQSSGLYSLSSVVTVPSSSLGTQTYICNVNHKPSNTKVDKKVEPKSCDKTHTCPPCPAPELLGGPSVFLFPPKPKDTLMISRTPEVTCVVVDVSHEDPEVKFNWYVDGVEVHNAKTKPREEQYNSTYRVVSVLTVLHQDWLNGKEYKCKVSNKALPAPIEKTISKAKGQPREPQVCTLPPSRDELTENQVSLTCLVKGFYPSDIAVEWESNGQPENNYKTTPPVLDSDGSFFLYSWLTVDKSRWQQGNVFSCSVMHEALHNHYTQKSLSLSPG
light: DIQMTQSPSSVSASVGDRVTITCRASQGISSWLAWYQQKPGKAPKLLIYAASSLQSGVPSRFSGSGSGTDFTLTISSLQPEDFATYYCQQGVSFPRTFGGGTKVEIKRTVAAPSVFIFPPSDEQLKSGTASVVCLLNNFYPREAKVQWKVDNALQSGNSQESVTEQDSKDSTYSLSSTLTLSKADYEKHKVYACEVTHQGLSSPVTKSFNRGEC
notes: Chain S: anti-BAFF-R scFv-CH2-CH3; chain H: anti-NKG2D VH-CH1-CH2-CH3; chain L: anti-NKG2D VL-CL; also called AB1612-002
For the molecule B1, the “lysis of BJAB target cells by rested primary human NK cells, EC50” value in [1] came to 0.06 nM. Also, in [1], the “specific lysis of BAFF-R+ target cells by KHYG-1-CD16V effector cells, EC50” value came out at 0.05 nM. Further, the Kd is 1100 nM in test [2]; 517 nM in test [4]; 3.2 nM in test [5]; 503 nM in [8]; 1400 nM in [10]; 900 nM and 1100 nM and 1000 nM in test [12]. For the same molecule, the Kd in test [13] is 1000 nM; in test [14], 1000 nM; in [16], 1100 nM; in test [17] it was 5900 nM; in test [18], 261 nM. Moreover, the EC50 came to 0.18 nM in test [3], 1.85 nM in test [11], 0.83 nM in test [15] and 3.09 nM in test [19]. Also, the “Max FOB” value in [3] is 10 fold over background. For the same molecule, the koff was 0.00023 s⁻¹ in test [5] and 0.014 s⁻¹ in [9]. Moreover, the kon in [5] was determined as 73000 M⁻¹ s⁻¹; in test [9], 110000 M⁻¹ s⁻¹. For the same molecule, the “EC50 (read off the curve)” value in [6] is approximately 0.8 nM. Further, the binding result in [7] is “no binding (tested: about 50 nM)”.
